Target: AviTag-His6-OAZ-GSY-SPM-Ctag (wt, with C175A) (human | Neisseria meningitidis …, UniProt Q9JYV5 414-657, biotin on the AviTag)
Test: SPR

Binder	koff	Kd
His6-ODC-Ctag (human Ornithine Decarboxylase) (enzyme) NNFGNEEFDCHFLDEGFTAKDILDQKINEVSSSDDKDAFYVADLGDILKKHLRWLKALPRVTPFYAVKCNDSKAIVKTLAATGTGFDCASKTEIQLVQSLGVPPERIIYANPCKQVSQIKYAANNGVQMMTFDSEVELMKVARAHPKAKLVLRIATDDSKAVCRLSVKFGATLRTSRLLLERAKELNIDVVGVSFHVGSGCTDPETFVQAISDARCVFDMGAEVGFSMYLLDIGGGFPGSEDVKLKFEEITGVINPALDKYFPSDSGVRIIAEPGRYYVASAFTLAVNIIAKKIVLKEQTGSDDEDESSEQTFMYYVNDGVYGSFNCILYDHAHVKPLLQKRPKPDEKYYSSSIWGPTCDGLDRIVERCDLPEMHVGDWMLFENMGAYTVAAASTFNGFQRPTIYYVMSGPAWQLMQQFQ	0.0028 s⁻¹	
ODC ΔN 4KR (enzyme) DCHFLDEGFTAKDILDQKINEVSSSDDKDAFYVADLGDILKKHLRWLKALPRVTPFYAVKCNDSRAIVRTLAATGTGFDCASRTEIQLVQSLGVPPERIIYANPCKQVSQIRYAANNGVQMMTFDSEVELMKVARAHPKAKLVLRIATDDSKAVCRLSVKFGATLRTSRLLLERAKELNIDVVGVSFHVGSGCTDPETFVQAISDARCVFDMGAEVGFSMYLLDIGGGFPGSEDVKLKFEEITGVINPALDKYFPSDSGVRIIAEPGRYYVASAFTLAVNIIAKKIVLKEQTGSDDEDESSEQTFMYYVNDGVYGSFNCILYDHAHVKPLLQKRPKPDEKYYSSSIWGPTCDGLDRIVERCDLPEMHVGDWMLFENMGAYTVAAASTFNGFQRPTIYYVMSGPAWQLMQQFQNPDFPPEVEEQDASTLPVSCAWESGMKRHRAACASASIN	0.0024 s⁻¹	22 nM

From PMC7846742 (2021)
